As usually defined, the stoichiometry N is a count of units in the complex or per binding partner.

The text below walks through data of paper PMC7142231, “α1-Microglobulin Binds Illuminated Flavins and Has a Protective Effect Against Sublethal Riboflavin-Induced Damage in Retinal Epithelial Cells” (Frontiers in Physiology, 2020).

In data set [1] the target is Cleaved A1M (~22 kDa band formed with illuminated riboflavin or FAD) (human). Put plainly: SDS-PAGE; 12% SDS-PAGE, samples reduced with 5% β-mercaptoethanol and boiled 1 min (similar results non-reducing); A1M with buffer or 40, 200, 1000 μM riboflavin or FAD, illuminated or in darkness 1 h at RT; Coomassie stain and Western blot.
Data set [2] deals with the molecule itself. Described as above.

Molecule “Cleaved A1M (~22 kDa band formed with illuminated riboflavin or FAD) (domain or fragment)” yielded a stoichiometry N in data set [1] of 2.

B1: Recombinant human α1-microglobulin (A1M) with an N-terminal His-tag (natural protein, UniProt P02760 20-203, looked up)
chain: GPVPTPPDNIQVQENFNISRIYGKWYNLAIGSTCPWLKKIMDRMTVSTLVLGEGATEAEISMTSTRWRKGVCEETSGAYEKTDTDGKFLYHKSKWNITMESYVVHTNYDEYAIFLTKKFSRHHGPTITAKLYGRAPQLRETLLQDFRVVAQGVGIPEDSIFTMADRGECVPGEQEPEPILIPRV
notes: human α1-microglobulin (A1M), the lipocalin cut from the AMBP precursor; construct as in Kwasek et al., 2007; also called recombinant A1M; not shown: His-tag, N-terminal, kept
For the molecule B1, the “stoichiometry N” value in data set [2] was found to be 2.
